# Assay results as given in paper PMC2425480 (Nucleic Acids Research, 2008).
# B1: Sulfolobus solfataricus MCM protein N-terminal domain (residues 1–268) (domain or fragment, UniProt Q9UXG1 1-268, looked up)
# chain: MEIPSKQIDYRDVFIEFLTTFKGNNNQNKYIERINELVAYRKKSLIIEFSDVLSFNENLAYEIINNTKIILPILEGALYDHILQLDPTYQRDIEKVHVRIVGIPRVIELRKIRSTDIGKLITIDGILVKVTPVKERIYKATYKHIHPDCMQEFEWPEDEEMPEVLEMPTICPKCGKPGQFRLIPEKTKLIDWQKAVIQERPEEVPSGQLPRQLEIILEDDLVDSARPGDRVKVTGILDIKQDSPVKRGSRAVFDIYMKVSSIEVSQKV
# Target: the molecule itself
# Assay: crystal structure
protein,measurement,value
B1,stoichiometry N,6
